From patent US12473545B2, “Regulation of RAN translation by PKR and eIF2α-P pathways” (University of Florida Research Foundation, Incorporated, priority 2017, dated 2025)
Entries after “also recorded” stand apart in the source; their conditions may differ.

Assays:
RAN translation = assay: Immunoblot of RAN protein levels in HEK293T cells transfected with repeat expansion constructs; format: cell-based; conditions: for RAN polyGP levels: HEK293T transiently transfected with G4C2 expansion construct, dose series; for polyLPAC RAN protein levels: CCTG (CCUG) expansion construct; for polyGP RAN protein levels: GGGGCC (G4C2) expansion construct
Source text: Diagrams of CAG, CCTG and GGGCC repeat expansion constructs used to test effects of protein kinase R (PKR) on repeat associated non-ATG (RAN) translation are shown in FIG. 1A. Briefly, constructs have a 6× stop-codon cassette (e.g., two stops in each reading frame, upstream of the repeat expansions and C-terminal epitope tags). A diagram of PKR vectors expressing wildtype (PKR-WT), the dominant negative K296R mutant form of PKR (PKR-K296R), or the C-terminal only domain (PKR-CT) are shown in FIG. 1B.
(§1) HEK293T cells were transfected with RAN protein-expressing and PKR-expressing constructs.
(§2) HEK293T cells were cultured in DMEM medium supplemented with 10% fetal bovine serum and incubated at 37° C. in a humid atmosphere containing 5% CO2. DNA transfections were performed using Lipofectamine 2000 Reagent (Invitrogen) according to the manufacturer's instructions.
(§3) Transfected cells in each well of a six-well tissue-culture plate were rinsed with PBS and lysed in 300 μL RIPA buffer with protease inhibitor cocktail for 45 min on ice. DNA was sheared by passage through a 21-gauge needle. The cell lysates were centrifuged at 16,000×g for 15 min at 4° C., and the supernatant was collected. The protein concentration of the cell lysate was determined using the protein assay dye reagent (Bio-Rad). Twenty micrograms of protein were separated in a 4-12% NuPAGE Bis-Tris gel (Invitrogen) and transferred to a nitrocellulose membrane (Amersham). The membrane was blocked in 5% dry milk in PBS containing 0.05% Tween-20 (PBS-T) and probed with the anti-Flag (1:2000), anti-Myc (1:1000), anti-HA (1:1000), or rabbit polyclonal antibodies (1:1000) in blocking solution. After the membrane was incubated with anti-rabbit or anti-mouse HRP-conjugated secondary antibody (Amersham), bands were visualized by the ECL plus Western Blotting Detection System (Amersham).
Next, the effects of PKR overexpression and inhibition on RAN protein accumulation across several types of repeat expansions were tested. […] For CAGEXP expressing cells, PKR-WT overexpression led to increased p-PKR and p-eIF2α, and increased RAN polyAla protein levels. In contrast, expression of the dominant-negative PKR-K296R mutation decreased polyAla RAN protein levels. […] The polyGln reading frame, which contains an AUG initiation codon, is not affected by PKR (FIG. 7A).
. […] Protein blots were run on protein lysates from HEK293T cells transfected with various repeat expansion constructs shown in FIG. 13A. In FIG. 13B, the lanes labeled KMQ, show: RAN poly-Ser-Flag, RAN poly-Ala-HA, ATG initiated polyGln-Myc. In FIG. 13B the lanes labeled KMQ has a methionine encoding ATG immediately 5′ to the CAG repeat expansion and located within the polyGln reading frame. The lanes labeled KKQ indicate the KKQ vector contains a CAG expansion without an AUG initiation codon, and indicates: RAN polySer-Flag, RAN polyAla-HA, RAN polyGln-Myc. These constructs contain epitope tags that are incorporated into the C-terminal regions of the ATG-initiated poly-Gln and non-ATG initiated RAN proteins (poly-Gln, poly-Leu-Pro-Ala-Cys and poly-Gly-Pro) which are expressed across these repeat expansions. The lane labeled CCTG expresses the following RAN proteins: RAN polyLPAC-Flag, RAN polyLPAC-HA, RAN polyLPAC-Myc. The lane labeled G4C2 is designed to detect the following RAN proteins: RAN polyGP-Flag, RAN polyGR-HA, RAN polyGA-Myc. […]

PKR = target: T1, PKR (Homo sapiens, UniProt P19525); assay: Protein blot of phospho-PKR (T446 and T451) in HEK293T cells transfected with repeat expansion constructs; format: cell-based; conditions: for G4C2 repeat-expansion induced p-PKR levels: HEK293T, G4C2 expansion construct, dose series
T1 construct: endogenous in cells; host or cells: HEK293T
Procedure: as §2, §3
Therefore, the ability of other RAN positive repeat expansions to activate PKR and the role of PKR on RAN translation were tested.
[…]. Transient transfections of expansion constructs treated with or without metformin were performed. […].

[1] = test system: glycine-proline (GP) RAN protein; assay: GP RAN protein levels in peripheral blood leukocytes of a C9ORF72 expansion-positive human subject; format: in vivo; conditions: single human subject; 500 or 1000 mg/day Metformin Hydrochloride Extended Release Tablets; 10 to 30 days; vs pretreatment
Source text: […]. […] […].

eIF2α = assay: Immunoblot of phosphorylated eIF2α in transfected HEK293T cells; format: cell-based; conditions: HEK293T co-transfected with repeat expansion constructs
Procedure: as §1, §2
as §3, with “System (Amersham). […]” for “System (Amersham).”

C9-500 BAC mice = assay: ICV injection of AAV expressing PKR-K296R in C9-500 BAC transgenic mice; format: in vivo; conditions: for GA RAN protein aggregates in the retrosplenial cortex (IHC): analysis at 3 months; for open field center time: vs C9 EGFP control animals
Source text: Schematic diagrams of AAV2/9 constructs used for rAAV injections into a BAC transgenic mouse model of C9orf72 ALS/FTD containing 500 G4C2 repeats (C9-500 BAC) are shown in FIG. 3A. Briefly, animals were sacrificed for analysis at 3 months of age after […] intracerebral ventricular (ICV) injections with AAV2/9 virus expressing either EGFP or the dominant negative form of PKR(K296R).
Representative immunohistochemical (IHC) staining of GA RAN protein aggregates in sections of the retrosplenial cortex from C9-500 BAC mice (FIG. 3B, left). Quantification of GA RAN protein aggregates was also performed (FIG. 3B, right). Analysis was done in a blinded fashion.
AAV vectors expressing the PKR under the control of the cytomegalovirus enhance/chicken beta actin (CBA) promoter, a woodchuck hepatitis virus post-transcriptional-regulatory element (WPRE), and the bovine growth hormone polyA were generated by Polyethylenimine Linear (PEI, Polysciences) transfection into HEK293T cells. Cells were co-transfected with AAV helper plasmids pDP8.ape to produce recombinant adeno-associated viral (rAAV) vector rAAV2/8.
Neonatal pups were injected within 0-12 hours after birth. The naive pups were covered in aluminum foil and completely surrounded in ice for 3-4 minutes, resulting in the body temperature being lowered to <10° C. The pups were considered completely cryoanesthetized when all movement stops and the skin color changes from pink to purple. 2 μl of virus ([…]) was slowly injected into the ventricle using 10 μl syringes (30 degree beveled). After injection pups were allowed to completely recover on a warming blanket and then returned to the home cage.
rAAV-mediated delivery of dominant negative PKR-K296R, or EGFP as a control, was performed using intracerebroventricular (ICV) injections at P0 in C9orf72 ALS/FTD BAC transgenic mice (C9-BAC) and non-transgenic (NT) littermate controls. A schematic depiction of each construct is described in FIG. 10A. Four groups of animals (EGFP/C9, EGFP/NT, PKR-K296R/C9 and PKR-K296R/NT) were aged to 3 months. […] Similarly, soluble GP levels, detected by meso-scale detection (MSD) assays, were reduced in brain lysates from C9 PKR-K296R treated animals compared to C9 EGFP controls.

[2] = HEK293T, CAG expansion construct

T1 sequence (P19525 whole entry): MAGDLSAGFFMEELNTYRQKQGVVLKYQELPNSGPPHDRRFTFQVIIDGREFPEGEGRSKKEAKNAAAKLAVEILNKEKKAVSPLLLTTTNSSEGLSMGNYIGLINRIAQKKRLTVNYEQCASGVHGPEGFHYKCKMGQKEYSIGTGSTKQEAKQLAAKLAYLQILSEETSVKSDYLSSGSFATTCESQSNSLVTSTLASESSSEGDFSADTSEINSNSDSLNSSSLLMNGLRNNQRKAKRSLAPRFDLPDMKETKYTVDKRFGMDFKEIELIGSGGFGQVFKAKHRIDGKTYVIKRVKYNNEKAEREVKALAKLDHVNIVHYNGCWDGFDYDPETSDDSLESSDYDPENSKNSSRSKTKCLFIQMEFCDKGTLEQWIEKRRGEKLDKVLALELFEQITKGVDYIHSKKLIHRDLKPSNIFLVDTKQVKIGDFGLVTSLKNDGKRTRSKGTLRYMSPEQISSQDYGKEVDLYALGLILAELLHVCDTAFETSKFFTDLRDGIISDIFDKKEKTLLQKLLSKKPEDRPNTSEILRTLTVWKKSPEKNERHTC

## O=C(COc1ccc(Cl)cc1)NC1CCC(NC(=O)COc2ccc(Cl)cc2)CC1 (stereo not drawn) [ISRIB, reference compound]
RAN translation; HEK293T transfected with expanded CAG and PKR-WT constructs
  polyAla RAN protein levels: reduces
RAN translation; HEK293T transfected with expanded CAG and PKR-WT constructs, listed as ISIRB
  polyAla RAN protein levels: decrease

## CCCCNC(=N)NC(=N)N [buformin, reference compound]
RAN translation
  RAN polyGP levels: dose-dependent inhibition
PKR
  G4C2 repeat-expansion induced p-PKR levels: dose-dependent inhibition

## CN(C)C(=N)NC(=N)N [metformin, reference compound]
RAN translation; HEK293T cells expressing CAG, CCUG or G4C2 expansion RNAs, protein blot
  RAN protein levels: decreases
RAN translation
  RAN polyGP levels: dose-dependent inhibition
RAN translation; [2]
  polyAla RAN protein levels: reduced RAN protein levels
RAN translation; HEK293T
  polyLPAC RAN protein levels: reduced RAN protein levels
  polyGP RAN protein levels: reduced RAN protein levels
PKR; HEK293T transiently transfected with expansion constructs, with or without metformin
  PKR phosphorylation at T446 and T451: decreases
PKR
  G4C2 repeat-expansion induced p-PKR levels: dose-dependent inhibition
[1]
  glycine-proline (GP) RAN protein levels in leukocyte lysates from peripheral blood: Dose dependent reduction

## [H]/N=C(/N)N/C(=N/[H])NCCc1ccccc1 [phenformin, reference compound]
RAN translation
  RAN polyGP levels: dose-dependent inhibition
PKR
  G4C2 repeat-expansion induced p-PKR levels: dose-dependent inhibition

B1: TARBP2: PKR inhibitor, transactivation response element RNA-binding protein, overexpressed by co-transfection (protein, UniProt Q15633 1-366, looked up)
RISC-loading complex subunit …: MSEEEQGSGTTTGCGLPSIEQMLAANPGKTPISLLQEYGTRIGKTPVYDLLKAEGQAHQPNFTFRVTVGDTSCTGQGPSKKAAKHKAAEVALKHLKGGSMLEPALEDSSSFSPLDSSLPEDIPVFTAAAAATPVPSVVLTRSPPMELQPPVSPQQSECNPVGALQELVVQKGWRLPEYTVTQESGPAHRKEFTMTCRVERFIEIGSGTSKKLAKRNAAAKMLLRVHTVPLDARDGNEVEPDDDHFSIGVGSRLDGLRNRGPGCTWDSLRNSVGEKILSLRSCSLGSLGALGPACCRVLSELSEEQAFHVSYLDIEELSLSGLCQCLVELSTQPATVCHGSATTREAARGEAARRALQYLKIMAGSK
RAN translation; HEK293T co-transfection, overexpression
  RAN polyAla levels expressed from CAG and CUG (CTG) expansions: decreases
RAN translation; HEK293T
  polyLPAC RAN protein levels: decreases
eIF2α
  steady state levels of eIF2α-P (p-eIF2α): reduces; also recorded: decrease

B2: PKR-K296R: dominant negative K296R mutant form of protein kinase R, expressed from plasmid or AAV vector (protein, UniProt P19525 2-551, looked up, variant K296R)
Interferon-induced, …: AGDLSAGFFMEELNTYRQKQGVVLKYQELPNSGPPHDRRFTFQVIIDGREFPEGEGRSKKEAKNAAAKLAVEILNKEKKAVSPLLLTTTNSSEGLSMGNYIGLINRIAQKKRLTVNYEQCASGVHGPEGFHYKCKMGQKEYSIGTGSTKQEAKQLAAKLAYLQILSEETSVKSDYLSSGSFATTCESQSNSLVTSTLASESSSEGDFSADTSEINSNSDSLNSSSLLMNGLRNNQRKAKRSLAPRFDLPDMKETKYTVDKRFGMDFKEIELIGSGGFGQVFKAKHRIDGKTYVIRRVKYNNEKAEREVKALAKLDHVNIVHYNGCWDGFDYDPETSDDSLESSDYDPENSKNSSRSKTKCLFIQMEFCDKGTLEQWIEKRRGEKLDKVLALELFEQITKGVDYIHSKKLIHRDLKPSNIFLVDTKQVKIGDFGLVTSLKNDGKRTRSKGTLRYMSPEQISSQDYGKEVDLYALGLILAELLHVCDTAFETSKFFTDLRDGIISDIFDKKEKTLLQKLLSKKPEDRPNTSEILRTLTVWKKSPEKNERHTC
RAN translation; [2]
  polyAla RAN protein levels: decreased
RAN translation; HEK293T, CAG expansion construct, listed as K296R PKR
  polyAla RAN protein levels: decreases
RAN translation; HEK293T, CAG expansion with ATG in polyGln frame
  ATG-initiated polyGln protein levels: not affected
RAN translation; HEK293T, CAGG expansion construct
  polyQAGR RAN protein levels: decreased
RAN translation; HEK293T
  polyLPAC RAN protein levels: decreased
  polyGP RAN protein levels: decreased
RAN translation; HEK293T, listed as K296R PKR
  polyLPAC RAN protein levels: decreases
  polyGP RAN protein levels: decreases
C9-500 BAC mice; 12 weeks
  DigiGait parameters (of 15) significantly different between C9 PKR-K296R and NT treatment groups: 2
  DigiGait parameters improved, of 15 that differed between untreated C9-500 and NT EGFP controls: nine of these parameters improved
C9-500 BAC mice; neonatal ICV AAV injection, 3 months, vs C9 EGFP controls
  soluble GP levels in brain lysates (MSD): reduced
C9-500 BAC mice; neonatal ICV AAV injection, vs C9 EGFP controls
  GA RAN protein aggregates in the retrosplenial cortex (IHC): decreased numbers of GA aggregates
C9-500 BAC mice; neonatal ICV AAV injection, vs C9 EGFP controls, listed as PKR(K296R)
  GA RAN protein aggregates in the retrosplenial cortex (IHC): fewer GA RAN protein aggregates
C9-500 BAC mice
  open field center time: increased center time
C9-500 BAC mice; listed as PKR(K296R)
  open field center time: reduced center time
eIF2α
  steady state levels of eIF2α-P (p-eIF2α): decreases
